# Measurements as given in the nanobody polyreactivity screen of Harvey et al. (2022).
# Assay: yeast display, Sf9 membrane polyspecificity reagent, FACS + sequencing; frameworks hold sequencing errors
# Summary of the method: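 Polyreactivity labels are assigned by the sorting gate from which each nanobody was recovered. The gates were low and high (top ~1%), set on anti-HA fluorescence for expression and streptavidin fluorescence for reagent binding. Before sorting, galactose-induced (36–48 hours) yeast display cells were stained for 1 hour at 4 °C with 10% biotinylated, detergent-solubilized Sf9 membrane reagent.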
row,Sequence,polyreactivity (PSR sort gate)
1,QVQLVESGGGLVQAGGSLRLSCAASGRIFRPNTMGWYRQAPGKERELVAAISRSGGSTYYADSVKGRFTISRDNAKNTVYLQMNSLKPEDTAVDYCAKRYGGIVGVGANKYEYWGQGTQVTVAS,high polyreactivity
2,QVQLVESGGGLVQAGGSLRLSCAASGRIFRPNTMGWYRQAPGKERELVASISLSAGSTYYADSVKGRFTISRDNAKNTVFLQMNSLKPEDTAVYYCNATYLSWYRYKYNYWGQGTQVTVSS,low polyreactivity
3,QVQLVESGGGLVQAGGSLRLSCAASGRIFRPYAMGWYRQAPGKERELVAAITRGGSTKYADSVKGRFTISRDNAKNTVYLQMNSLKPEDTAVYYCAARGWSTGTSYRSAWWDYYYWGQGTQVTVSS,high polyreactivity
4,QVQLVESGGGLVQAGGSLRLSCAASGRIFRQNAMGWYRQAPGKERELVAAISRGGGSTYYADSVKGRFTISRDNAKNTVYLQMNSLKPDDTAVYYCAAFQAHQTAFDYWGQGTQVTVSS,high polyreactivity
5,QVQLVESGGGLVQAGGSLRLSCAASGRIFRRNTMGWYRQAPGKEREVVAAITSSGGSTYADSVKGRFTISRDNAKNTVYLQMNSLKPEDTAVYYCATYVAYHRGYRTYDHWGQGTQVTVSS,low polyreactivity
6,QVQLVESGGGLVQAGGSLRLSCAASGRIFRRYALGLYRQAPGKEREFVAAISYGGGSTYYADSVKGRFTISRDNAKNTVYLQMNRLKPEDTAVYFCNADVPKSLLLYYPWGYGYWGQGTQVTVSS,low polyreactivity
7,QVQLVESGGGLVQAGGSLRLSCAASGRIFRRYAMGWNRQAPGKEMELVAAISRSGGSTYYADSVKGRFTISRDNAKNTVYLQMNSLKPEDTAVYYCNRRYITYNYDYWGQGTQVTVSS,high polyreactivity
8,QVQLVESGGGLVQAGGSLRLSCAASGRIFRRYVMGWYRPAPGKERELVATINSNGGSTYYADSVKGRFTISRDNAKNTVYLQMNSLKPEDTAVYYCAAYYRWIGGRYTPYYYWGQATQVTVSS,high polyreactivity
9,QVQLVESGGGLVQAGGSLRLSCAASGRIFRSNAKGWYRQAPRKERELVAAISGGGSTYYADSVKGRFTISRDNAKNTVYLQMNSLKPEDTAVYYCAAGRHLAYWSRDYYYWGQGTQVTVSS,high polyreactivity
10,QVQLVESGGGLVQAGGSLRLSCAASGRIFRSNAMGWYRQAPGKERELVAAISQRGGSTYYADSVKGRFTISRDNAKNTVYLQINSLKPEDTAVYYCNARGRYYSGDNWGQGTQVTVSS,high polyreactivity
11,QVQLVESGGGLVQAGGSLRLSCAASGRIFRSNAMGWYRQAPGKERELVATISRRGGSTYYADSVKGRFTISRDNAKNTVYLQMNSLKPEDTAVYYCNTRNSGSLDLYNTMDYWGQGTQVTVSS,high polyreactivity
12,QVQLVESGGGLVQAGGSLRLSCAASGRIFRSNAMGWYRQAPWKERELVATITSSGGRTYYADSVKGRFTISRDNAKNTVYLQMNSLKPEDTAVYYCIAQQRTRGQKAQWVRDEYWGQGTQVTVSS,low polyreactivity
13,QVQLVESGGGLVQAGGSLRLSCAASGRIFRSYAMGGYRQAPGKERELVAAMTSGGSTNYADSVKGRFTISRDNAKNTVYLQMNSLKPEDTAVYYCNADRWKSGYWRYDYWGQGTQVTVSS,low polyreactivity
14,QVQLVESGGGLVQAGGSLRLSCAASGRIFRSYAMGWYRQAPGKERELVAAISYSGGSTYYADSVKGRFTISRDNAKNTVYLQMNSLKPEDTAVYYCAALPGERKYIYYGYDYWGQGTQVTVSS,high polyreactivity
15,QVQLVESGGGLVQAGGSLRLSCAASGRIFRTNAMGWYRQAPGKDRELVAAISRSGGSTYYADSVKGRFTISRDNAKNTVYLQMNSLKPEDTAVYYCATRVGKILTTKYGYWGQGTQVTVSS,high polyreactivity
16,QVQLVESGGGLVQAGGSLRLSCAASGRIFRTYAMGWSRQAPGKERELVAAISGSGGRTYYADSVKGRFTISRDNAKNTVYLQMNSLKPEDTAVYYCAKYVSIVRYGSTTNYDYWGQGTQVTVSS,high polyreactivity
17,QVQLVESGGGLVQAGGSLRLSCAASGRIFRTYAMGWYRPAPGKERELVAAISGSGGRTYYADSVKGRFTISRDNAKNTVYLQMNSLKPEDTAVYYCANYVSIVRYGSTTNYDYWGQGTQVTVSS,high polyreactivity
18,QVQLVESGGGLVQAGGSLRLSCAASGRIFRVNAMGWYRQAPGKDREFVAAITASSGRTSYADSVKGRFTISRDNAQNTVYLQMNSLKPEDTAVYYCNAAVSQFSHRWRRRITFDYWGQGTQVTVSS,low polyreactivity
19,QVQLVESGGGLVQAGGSLRLSCAASGRIFRVNAMGWYRQAPGKERELVASITKSTGSTYYADSVKGRFTISRDNAKNTVYLQMNSLKPEDTAVYYCAKAASYPVRAFYYWGQGTQVTVSS,high polyreactivity
20,QVQLVESGGGLVQAGGSLRLSCAASGRIFRVNAMGWYRQAPGKERELVATITGSGGSTYYADSVKGRFTISRDNAKNTVHLQMNSLKPEDTAVYYCAVDRGRGSTYKYDYWGQGTQVTVSS,low polyreactivity

row,Sequence,polyreactivity (PSR sort gate)
1,QVQLVESGGGLVQAGGSLRLSCAASGRIFRVYAMGWSRQAPGKERELVAAIRWTGGSTYYADSVKGRFKISRDNAKNTVYIQIHSLKAEDTAVSYCAAGRYYSDGSRTIYDYWGQGTQVTGSS,high polyreactivity
2,QVQLVESGGGLVQAGGSLRLSCAASGRIFRVYAMGWYRQAPGKERELVAAISSSGSSTYYADSVKGRFTISRDNAKYTVYLQMNSLKPEDTAVYYCAARGYDISSRYDYWGQGTQVTVSS,high polyreactivity
3,QVQLVESGGGLVQAGGSLRLSCAASGRIFRWYAMGWYRPAPGKERELVAAISRSGTSTYYADSVKGRFTISRDNAKNTVYLQMNSLKPEDTAVYDCAADRTGRIVLSPTDEMDYWGQGTQVTVSS,low polyreactivity
4,QVQLVESGGGLVQAGGSLRLSCAASGRIFRYNAMGGYRQAPGKERELVAAITWRGGSTYYADSVKGRFTISRDNAKNTVYLQMNSLKPEDTAVYYCNKVDSLTFEYDYWGQGTQVTVSS,high polyreactivity
5,QVQLVESGGGLVQAGGSLRLSCAASGRIFRYNAMGLYRQAPGKERELVAAISRSGGSTYYADSVKGRFTISRDNAKNTVYLQMNSLKPEDTAVYYCAVRRDGSGGNLDYWGQGTQVTVSS,high polyreactivity
6,QVQLVESGGGLVQAGGSLRLSCAASGRIFRYNAMGWYRQAPGKEREFVAAISWSGDRTYYADSVKGRFTISRDNAKNTGYLQMNSLKTEDTAVYYCADVPATSYPRRYVYAYYYWGQGTQVTVSS,high polyreactivity
7,QVQLVESGGGLVQAGGSLRLSCAASGRIFRYNAMGWYRQAPGKERELVAAISSGGSTNYADSVKGRFTTSRDNAKNTVYLQMNSLKPEDTAVYYCNAESVHRYPGWGYDYWGQGTQVTVSS,low polyreactivity
8,QVQLVESGGGLVQAGGSLRLSCAASGRIFRYNAMGWYRQAPGKERELVAALTSGGSTNYADSVKGRFTISRDNAKNTVYLQMNSLKPEDTAVYYCAVTGYRPYAYRRRYPYDYWGQGTQVTVSS,high polyreactivity
9,QVQLVESGGGLVQAGGSLRLSCAASGRIFRYNAMGWYRQPPGKEREFVARISVITGRTYYADSVKGRFTISRDNAKNTVYLQMNSLKPEDTAVYFCAADAGYNYRYLLRGDYWGQGTQVTVSS,high polyreactivity
10,QVQLVESGGGLVQAGGSLRLSCAASGRIFRYNTMGRNRHAPGKEREFVAAISYRGASTYYADSVKGRFTISRDNAKNNVYLQMNSLKPEDTAVYYCAAVTISKGFYPYDYWGQGTQVSVSS,high polyreactivity
11,QVQLVESGGGLVQAGGSLRLSCAASGRIFRYSAMGWYRQAPGKERELVAAISSDGSTDYADSVKGRFTISRDNAKNTVYLQMNSLKPEDTAVYYCAASVVSYGHDYWGQGTQVTVSS,low polyreactivity
12,QVQLVESGGGLVQAGGSLRLSCAASGRIFRYYAMGWYRQAPGKEREFVAAITYIGGSTYYADSVKGRFTISRDNAKNTVYLQMNSLKPEDTAVYWGQGTQVTVSS,low polyreactivity
13,QVQLVESGGGLVQAGGSLRLSCAASGRIFRYYAMGWYRQAPGKERELVAAIRSDDSTNYADSVKGRFTISRDNAKNTVYLQMNSLKPEDTAVYYCAAVKAYYGGSRSYYYWGQGTQVTVSS,high polyreactivity
14,QVQLVESGGGLVQAGGSLRLSCAASGRIFRYYAMGWYRQAPGKERELVAAISGGRTYYADSVKGRFTISRDNAKNTVYLQMNSLKPEDTAVYYCNAGGIVWTGYWYDYDYWGQGTQVTVSS,high polyreactivity
15,QVQLVESGGGLVQAGGSLRLSCAASGRIFRYYAMGWYRQAPGKERELVAAITAGGGTTYYADSVKGRFTISSDNAKNTVYLQMNSLKPEDTAVYYCAKDGRYYSHYNYWGQGTQVTVSS,high polyreactivity
16,QVQLVESGGGLVQAGGSLRLSCAASGRIFRYYAMGWYRQAPGKERELVAAITQRGGSTYADSVKGRFTISRDNANNTVYLQMNSLKPEDTAVFYCAYRGSFLYDYWGQGTQVTVSS,low polyreactivity
17,QVQLVESGGGLVQAGGSLRLSCAASGRIFRYYAMGWYRQAPGKERELVARITWSGGRTYYADSVKGRFTISRDNAKNTVYLQMNSLKPEDTAVYYCNARATSGGDYWGQGTQVTVSS,high polyreactivity
18,QVQLVESGGGLVQAGGSLRLSCAASGRIFRYYAMGWYRQAPGKERELVASISNGGGTYYADSVKGRFTISRDNAKNTVYLQMNSLKPEDTAVYYCNARKWSQYIVPLRDYWGQGTQVTVSS,high polyreactivity
19,QVQLVESGGGLVQAGGSLRLSCAASGRIFRYYAMGWYRQAPGKERELVATISRSGGSTFYADSVKGRFTISRDNAKNTVYLQMNSLKPEDTAVYYCNARYQTGGYGYWGQGTQVTVSS,high polyreactivity
20,QVQLVESGGGLVQAGGSLRLSCAASGRIFRYYAMGWYRQAPGKERELVAVINWSGGSTYYADSVKGRFTISRDNAKNTVYFQMNSLKPEDTAVYYCNVYSVYPQFNYWGQGTQVTVSS,high polyreactivity
